Measured values from publication PMC2999833.

Legend:
[1] = target: Dok1 pY362 peptide (human); assay: SPR
[2] = target: Dok2 pY345 peptide (human); assay: SPR

Substance: Full-length recombinant His tagged human Nck1 (from UniProt P16333 1-377) (natural protein)
- Kd [1]: 0.6 µM
- Kd [2]: 3.5 µM
